Test results as given in PMC5449627.

Molecular target: AGO2 (Argonaute 2) (UniProt Q9UKV8)
Experiment: single-molecule FRET
Details: guide 5' phosphate; internal amino-C6 U18; single-molecule FRET on immobilized biotinylated target RNA; 100 nM AUF1 where added; buffer, salt, pH and temperature not in the material

Sequence of AGO2 (Argonaute 2) (Q9UKV8 whole entry): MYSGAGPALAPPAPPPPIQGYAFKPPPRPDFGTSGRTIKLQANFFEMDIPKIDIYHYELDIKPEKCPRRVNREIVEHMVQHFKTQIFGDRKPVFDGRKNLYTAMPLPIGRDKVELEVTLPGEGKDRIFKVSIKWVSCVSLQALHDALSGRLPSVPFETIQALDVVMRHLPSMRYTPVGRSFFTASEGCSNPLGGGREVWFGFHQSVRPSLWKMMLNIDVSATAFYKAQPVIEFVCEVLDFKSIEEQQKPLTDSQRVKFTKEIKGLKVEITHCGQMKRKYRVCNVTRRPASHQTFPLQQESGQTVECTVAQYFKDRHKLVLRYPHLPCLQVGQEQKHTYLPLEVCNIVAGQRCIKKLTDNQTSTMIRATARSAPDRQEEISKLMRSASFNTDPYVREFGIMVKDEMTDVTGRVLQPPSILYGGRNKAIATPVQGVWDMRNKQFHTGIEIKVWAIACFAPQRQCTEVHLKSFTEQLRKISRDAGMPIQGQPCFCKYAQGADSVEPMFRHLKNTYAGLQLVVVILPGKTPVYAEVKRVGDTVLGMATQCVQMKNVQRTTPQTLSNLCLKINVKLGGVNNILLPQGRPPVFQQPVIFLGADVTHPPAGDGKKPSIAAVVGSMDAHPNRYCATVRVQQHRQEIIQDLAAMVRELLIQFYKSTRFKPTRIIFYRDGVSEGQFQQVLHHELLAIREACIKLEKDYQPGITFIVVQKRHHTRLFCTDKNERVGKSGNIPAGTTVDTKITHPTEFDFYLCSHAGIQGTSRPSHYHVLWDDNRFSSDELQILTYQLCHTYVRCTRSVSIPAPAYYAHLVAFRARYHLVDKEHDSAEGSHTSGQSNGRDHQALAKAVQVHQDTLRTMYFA

Sequence | binding signal (% decrease of binding rate)
UGAGGUAGUAGGUUGUGUGGUU / UAACCACACUGUUGACUACCUCACCCCCCCCCCCCCCCC [let-7b guide / POLR2D RNA with let-7b WT] | 42
UGAGGUAGUAGGUUGUGUGGUU / UAACCACACUGUUGACUACCUCAUUCCUGGUUUUUGGCCUCCACAUCAUCUUUUUUCUUAAUAUUUCAUCCCCCCCCCCCCCCCC [let-7b guide / POLR2D RNA with let-7b WT and AUF1 site] | 78
